{
  "source": "patent US20110301120A1",
  "about": "“USE OF A CHITOSAN POLYMER FOR HEPARIN NEUTRALIZATION” (UNIWERSYTET JAGIELLONSKI, priority 2009, published 2011)",
  "key": {"[1]": {"assay": "Interaction of heparin with cationically-modified chitosan at pH 7.4 (Azure A method)", "format": "binding", "experimental": "The concentration of in solution was determined spectrophotometrically using Azure A. 0.9 ml of proper buffer was added to 0.1 ml of heparin solution, followed by addition of 1.0 ml of Azure A solution at 8.0·10^−5 M and the absorption spectrum of the obtained solution was measured. The concentration of heparin was determined on the basis of the intensity of absorption band at 630 nm, which corresponds to monomeric molecules of Azure A. The concentration of free heparin after addition of chitosan was determined by mixing at defined proportions of chitosan solutions in acetic acid. After 10 minutes of energetic shaking the mixtures obtained were centrifuged at 3000 rpm in order to separate the insoluble complex. The concentration of free heparin was determined in the supernatant.\nThe interaction of modified polymers with heparin in the aqueous solution at pH 7.4 was studied (FIG. 2). By measuring heparin concentration with Azure A method it was shown that cationically-modified chitosan effectively complexes free heparin in solution at pH 7.4.\nThe efficiency of heparin complexation by both polymers obtained was compared with the efficiency of protamine, a heparin-reversal agent commonly used in medicine (Table 1)."}, "[2]": {"assay": "Dynamic light scattering: size of polymer objects and of their complexes with heparin", "format": "physicochemical", "settings": "PBS", "experimental": "The UV spectra were recorded using a diode-array HP 8452A spectrophotometer in quartz cuvettes with 1 cm optical path. The microscopic images were obtained using Nikon TE-2000 fluorescence microscope. The size of aggregates in suspensions was determined using a Zetasizer Nano ZS instrument from Malvern Instruments Ltd.\nUsing dynamic light scattering technique the size of objects formed by protamine and ChGl1 in the aqueous solution at pH 7.4 was measured (FIG. 3). The solutions of polymers were prepared in the PBS buffer. The heparin-protamine and heparin-ChGl complexes were obtained by mixing the respective solutions at the volume ratio corresponding to the minimum amount of the polycation needed to completely bind heparin in the solution.\nFor such mixtures the size and polydispersity of particles were measured."}, "[3]": {"settings": "if not neutralized or removed from the bloodstream; cited from earlier work"}, "[4]": {"settings": "fast injection, dogs; cited from earlier work"}, "[5]": {"settings": "minimum amount of polycation needed to completely bind heparin"}},
  "data": [
    {"substance": "protamine", "values": [
      {"measurement": "Mass required to bind 1 mg of heparin in PBS buffer at pH 7.4", "setting": "[1]", "result": 1.2661, "unit": "mg"},
      {"measurement": "size (diameter) of objects formed by the polymer", "setting": "[2]; pH 7.4, without heparin", "result": "about 4 nm"},
      {"measurement": "diameter of aggregates with heparin", "setting": "[2]; [5]", "result": "≤ 10", "unit": "μm"},
      {"measurement": "polydispersity of complexes with heparin", "setting": "[2]; [5]", "result": "very polydisperse"},
      {"measurement": "patients with adverse effects", "setting": "[3]", "result": "about 10%"},
      {"measurement": "hemodynamic effect", "setting": "[4]", "result": "severe hypotension"}
    ]}
  ]
}
